The values that follow come from article doi:10.1101/2025.11.18.25340485 (medRxiv, 2025).

A word on the Kd: it is the equilibrium constant for the complex coming apart.

The target of the experiment is T1, WT-RBD (receptor-binding domain of the SARS-CoV-2 wild-type, Wuhan-Hu-1, spike protein) (SARS-CoV-2, UniProt P0DTC2).
T1 construct: not shown: His6, C-terminal, kept
Kind of experiment: BLI. The settings on record: both partners purified.

B1: CC25.4 Fab (Fab, V domains shown)
VH: QVQLVQSGAEVKKPGASVKVSCKASGYTFTDYFLHWVRQAPGQGLEWMGWINPDSGGTNYAQRFQGRVTMTRDTSISTAYMEVSRLRSDDTAVYYCARDNERYQMQNYYHYYGMDVWGQGTTVTVVS
VL: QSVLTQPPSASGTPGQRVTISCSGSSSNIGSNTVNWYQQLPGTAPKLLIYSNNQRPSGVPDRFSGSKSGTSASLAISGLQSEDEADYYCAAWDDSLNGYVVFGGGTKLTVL
notes: also called class V antibody; source: ExpiCHO cells, co-transfected, purified (CaptureSelect CH1-XL, SEC)
In turn, B1 came in with a Kd of 0.4 nM.
